Experiment: yeast display, Sf9 membrane polyspecificity reagent, FACS + sequencing; frameworks hold sequencing errors
In short: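 Galactose induction of a Saccharomyces cerevisiae BJ5465 synthetic nanobody display library ran 36–48 hours. The cells were then stained for 1 hour at 4 °C with 10% biotinylated, detergent-solubilized Sf9 membrane reagent, pulled down on streptavidin microbeads and FACS-sorted into low and high (top ~1%) gates on expression and reagent-binding fluorescence. Labels for polyreactivity follow the gate of origin.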

**Q.** For “QVQLVESGGGLVQAGGSLRLSCAASGFSFRYYAMGWYRQAPGKERELVAAISSSGTRTYYADSVKGRFTISRDNATTTVYLQMNSLKPEDTAVYYCNAGSPTSTVDYWGQGTQVTVSS”, which “polyreactivity (PSR sort gate)” value is on record?
**A.** The value was “high polyreactivity”.

**Q.** Which “polyreactivity (PSR sort gate)” value does the source give for “QVQLVESGGGLVQAGGSLRLSCAASGFSFSSYAMGWYRQAPGTERELVATISVNGGSTNYADSVKGRFTISRDNAKNTVYLQMNSLIPEDTAVYYCNAKSYTRRSYYTPTVPGDYWGQGTQVTVSS” here?
**A.** The value was “low polyreactivity”.

**Q.** For “QVQLVESGGGLVQAGGSLRLSCAASGFSFSYYAMGWYRQAPGKERELVAAINYSGTSTYYADSVKGRFTISRDNAKNTVYLQMKSLKPEDTAVYYCAADLPYYPYLYDYWGQGTQVTVSS”, which “polyreactivity (PSR sort gate)” value is on record?
**A.** Its value is “low polyreactivity”.

**Q.** For “QVQLVESGGGLVQAGGSLRLSCAASGFSFTRYAMGWYRQAPGKERELVAAIYIGGSTYYADSVKGRFTISRDNAKNTVYFQMNSQKPEDTAVYYCAVDYRHSSSWNAGPWEMYYWGQGTKVTVSS”, which “polyreactivity (PSR sort gate)” value is on record?
**A.** Its value is “low polyreactivity”.

**Q.** For “QVQLVESGGGLVQAGGSLRLSCAASGFSFYRYAMGWYRQAPAKERELVARTYYADSVKGRFTISRDNAKNTVYLQMNSLKPEDTAVYYCNKDLELEYRYEYWGQGTQVTVSS”, which “polyreactivity (PSR sort gate)” value is on record?
**A.** Its value is “low polyreactivity”.

**Q.** For “QVQLVESGGGLVQAGGSLRLSCAASGFSFYSYTMGWYRQAPGSVRELVAAISRSGGRTSYADSVKGRFTNSRDNAKNTVYLQMNSLKPDDTAVYYRNAVRLLQTFAEYEYWGQGTQVTVSS”, which “polyreactivity (PSR sort gate)” value is on record?
**A.** The value was “high polyreactivity”.

**Q.** For “QVQLVESGGGLVQAGGSLRLSCAASGFSLRNNAMGWYRPAPGKERELVAGITSGGRTNYADSVKGRFTISRDNAKNTVYLQMNSLKPEHTAVYYCAKRVWPRDQYGKRNPRMDYWGQGTLVTVSS”, which “polyreactivity (PSR sort gate)” value is on record?
**A.** Its value is “high polyreactivity”.

**Q.** Which “polyreactivity (PSR sort gate)” value does the source give for “QVQLVESGGGLVQAGGSLRLSCAASGFSYRYYAMGWYRQAPGKERELVAAISSRGGSTYYADSVKGRFTISRDNATNTVYLQMNSLKPEDTAVYYCAADHGDPGGYDYWGQGTQVTVSS” here?
**A.** Its value is “high polyreactivity”.

**Q.** Which “polyreactivity (PSR sort gate)” value does the source give for “QVQLVESGGGLVQAGGSLRLSCAASGFTCARYALGWYRQAPGQERELVASITWNGGRTYYAASVKGRFTISRDNAKNTVYLQMNSLKPEDTAVYYCAKDTRYTRYEYWGQGTQVTVSS” here?
**A.** The value was “high polyreactivity”.

**Q.** For “QVQLVESGGGLVQAGGSLRLSCAASGFTCGYYAMGWYREAPGKEREFVATISYGTGSTYYADSVKGRFTISRDNAKNTVSFQMNSLKPEDTAVYYCNADTWPGEYNGYFSGAYDYWGQGTQVTVSS”, which “polyreactivity (PSR sort gate)” value is on record?
**A.** Its value is “high polyreactivity”.

**Q.** Which “polyreactivity (PSR sort gate)” value does the source give for “QVQLVESGGGLVQAGGSLRLSCAASGFTFAANTMGWYRQAPGKERELVADISGRGDRTSYADSVKGRFTISRDNAKNTVYLQMNSLKPEDTSVYYCAVDIYYYSNVHYYYWGQGTQVTVSS” here?
**A.** Its value is “low polyreactivity”.

**Q.** With “QVQLVESGGGLVQAGGSLRLSCAASGFTFADYAMGWYRQAPGKERELVAAINRSGGRTYYADSVKGRFTISRDNAKNTVYLQMNSLKPEDTAVYYCAAYGITYHNYDYWGQGTQVTVSS” as the sequence, how does the “polyreactivity (PSR sort gate)” value read?
**A.** The value was “high polyreactivity”.

**Q.** For “QVQLVESGGGLVQAGGSLRLSCAASGFTFAGNARGWDRQSPGKERELVAAITSGGSTYYADSVKGRFTMSRDKAKNTVYLQMNSLKPEDTAVYYCAALVFRGRSFTHDYWGQGTQVTVSS”, which “polyreactivity (PSR sort gate)” value is on record?
**A.** The value was “high polyreactivity”.

**Q.** For “QVQLVESGGGLVQAGGSLRLSCAASGFTFAGYAMGWNRQAPGKERELVAASNRGGSTYYADSVKGRFTSSRDNAKHTVYLQRNSLKPEDTAVYYCAKAQRFYGGRMGYWGQGTQVTVSS”, which “polyreactivity (PSR sort gate)” value is on record?
**A.** Its value is “low polyreactivity”.

**Q.** For “QVQLVESGGGLVQAGGSLRLSCAASGFTFAGYAMGWYRQAPGKERELVAAISWRGGSTYYADSVKGRFTISRDNAKNTVYLQMNSLKPEDTAVYYCAAASRKRTSREPLDYWGQGTQVTVSS”, which “polyreactivity (PSR sort gate)” value is on record?
**A.** The value was “high polyreactivity”.

**Q.** For “QVQLVESGGGLVQAGGSLRLSCAASGFTFAGYAMGWYRQAPGKERELVAGIRSSGARTNYADSVKGRFTISRDNAKNTVYLQMNSLKPEDTAVYYCNAVRTLYIWWPGYYYWGQGTQVTVSS”, which “polyreactivity (PSR sort gate)” value is on record?
**A.** The value was “low polyreactivity”.

**Q.** With “QVQLVESGGGLVQAGGSLRLSCAASGFTFAGYAMGWYRQAPGKERELVAGIRSSGARTYYADTVKGRFTISRDNAKNTVYFQLKSLKPDDTAVYYCAKTDGFYGGYGYWGQGTQVTVSS” as the sequence, how does the “polyreactivity (PSR sort gate)” value read?
**A.** The value was “low polyreactivity”.

**Q.** For “QVQLVESGGGLVQAGGSLRLSCAASGFTFAHNAMGWYRQAPGKERELLAAISSRGGRTFYADSVKGRFTISRDNAKNTVYLQMNSLKPEDTAVYYCNRVRSVTPSPRYYYWGQGTQVTVSS”, which “polyreactivity (PSR sort gate)” value is on record?
**A.** The value was “high polyreactivity”.

**Q.** For “QVQLVESGGGLVQAGGSLRLSCAASGFTFALNAMGWYRQAPGKERELVAAISFSGTRTYYADSVKGRFTISRDNAKNTVYLQMNSLKPEDTAVYYCAARVWVSDSYYPYYYWGQGTQVTVSS”, which “polyreactivity (PSR sort gate)” value is on record?
**A.** The value was “high polyreactivity”.

**Q.** For “QVQLVESGGGLVQAGGSLRLSCAASGFTFALYTMGSYRQAPGKERELVAAIRSTGSTYADSVKGRFTISRDNAKNTVYLQMNSLKPEDTAVYYCAAQYWRRKKYYYWGQGTQVTVSS”, which “polyreactivity (PSR sort gate)” value is on record?
**A.** Its value is “high polyreactivity”.

**Q.** For “QVQLVESGGGLVQAGGSLRLSCAASGFTFARNAMGWYRQAPGKERELVAAINRSGGSTYYADSVKGRFTISRDNAKNTVYLQMNRLKPEDTAVYYCNKPRLAQQGYDYWGQGNQVTVSS”, which “polyreactivity (PSR sort gate)” value is on record?
**A.** The value was “high polyreactivity”.

**Q.** With “QVQLVESGGGLVQAGGSLRLSCAASGFTFARNAMGWYRQAPGKERELVAVISRGGSTNYADSVKGRFTISRDNAKNTVSLQLHSLKPEDTAVYYCATRSSRRSYYLGEFNYWGQGTQVTVSS” as the sequence, how does the “polyreactivity (PSR sort gate)” value read?
**A.** The value was “high polyreactivity”.

**Q.** For “QVQLVESGGGLVQAGGSLRLSCAASGFTFARYAMGWYRQAPGKERELVAAITYSGGRTYYADSVKGRFTISRDNAKNTVYLQMNSLKPEDTAVYYCAARLSKRSGYYYWGQGTQVTVSS”, which “polyreactivity (PSR sort gate)” value is on record?
**A.** The value was “high polyreactivity”.

**Q.** Which “polyreactivity (PSR sort gate)” value does the source give for “QVQLVESGGGLVQAGGSLRLSCAASGFTFARYAMGWYRQAPGKERELVASISGSGGSTYYADSVKGRFTISRDNAKNTVYLQMNSLKPEDTAVYYCAADTWYGFDWGQGTQVTVSS” here?
**A.** Its value is “high polyreactivity”.

**Q.** With “QVQLVESGGGLVQAGGSLRLSCAASGFTFARYTMGWYRQAPGKERELVAAISSRGSSTYYADSVKGRFTISRDNAKNTVFLQMNSLKPEDTAVYYCAASPYDTQTLDYDYWGQGTQVTVSS” as the sequence, how does the “polyreactivity (PSR sort gate)” value read?
**A.** The value was “high polyreactivity”.

**Q.** For “QVQLVESGGGLVQAGGSLRLSCAASGFTFATYTIGWYRPAPGKERELVAAISWSGGSTYYADSVKGRFTISRDNAKNTVYLQMNSLKPEDTAFYYCAAQRPSALRLYSSQRTIFGYWGQGTQVTVSS”, which “polyreactivity (PSR sort gate)” value is on record?
**A.** Its value is “high polyreactivity”.

**Q.** With “QVQLVESGGGLVQAGGSLRLSCAASGFTFAVSAMGWYRQAPGKERELVAAISRSGTRTYYADSVKGRFTISRDNAKNTVYLQMNSLKPEDTAVYYCAADKYRHGYDYWGQGTQVTVSS” as the sequence, how does the “polyreactivity (PSR sort gate)” value read?
**A.** The value was “low polyreactivity”.

**Q.** With “QVQLVESGGGLVQAGGSLRLSCAASGFTFAVYAMGWDSQAPGKERELVAAISRSGTRTYYADSVKGRFTSSRDNAKNTVSLQMNSLKPEDTAVYYCAADKYRHGYDYWGQGTQVTVSS” as the sequence, how does the “polyreactivity (PSR sort gate)” value read?
**A.** Its value is “low polyreactivity”.

**Q.** For “QVQLVESGGGLVQAGGSLRLSCAASGFTFAVYAMGWYRQAPGKERELVAAISRSGTRTYYADSVKGRFTISRDNAKNTVYLQMNSLKPEDTAVYYCAADKYRHGYDYWGQGTQVTVSS”, which “polyreactivity (PSR sort gate)” value is on record?
**A.** Its value is “low polyreactivity”.

**Q.** Which “polyreactivity (PSR sort gate)” value does the source give for “QVQLVESGGGLVQAGGSLRLSCAASGFTFAVYVMGWYRPGRGKERELVAAISRSGGSTYYADSVKGRFTISRDNANNTDYLQMNSLNPEDTAVYYCAASPKRVLRESGDYCGQGTQVTVSS” here?
**A.** Its value is “high polyreactivity”.

**Q.** With “QVQLVESGGGLVQAGGSLRLSCAASGFTFAWNAKGWYRQAPGKERELVAAINRSGGSTKYADSVKGRFTISRDNAKNTVYLQMNSLKPEDTAVYFCNKYQLVRTYGSYSYYYWVQGTQVTVSS” as the sequence, how does the “polyreactivity (PSR sort gate)” value read?
**A.** Its value is “high polyreactivity”.

**Q.** With “QVQLVESGGGLVQAGGSLRLSCAASGFTFAYNAMGWYRQAPGKERELVAAITVSGGRTYYADSVKGRFTISRDNAKNTVYLQMNSLKPEDTAVYYCAATVRVRTNSWMDYWGQGTQVTVSS” as the sequence, how does the “polyreactivity (PSR sort gate)” value read?
**A.** Its value is “low polyreactivity”.

Reference: the nanobody polyreactivity screen of Harvey et al. (2022)
